Laboratory results from patent publication US20210238252A1.

Biological target: Fc receptor CD16 (UniProt P08637)
Assay: cell-based or functional assay

Chain of Fc receptor CD16 (P08637 17-254 limits assumed): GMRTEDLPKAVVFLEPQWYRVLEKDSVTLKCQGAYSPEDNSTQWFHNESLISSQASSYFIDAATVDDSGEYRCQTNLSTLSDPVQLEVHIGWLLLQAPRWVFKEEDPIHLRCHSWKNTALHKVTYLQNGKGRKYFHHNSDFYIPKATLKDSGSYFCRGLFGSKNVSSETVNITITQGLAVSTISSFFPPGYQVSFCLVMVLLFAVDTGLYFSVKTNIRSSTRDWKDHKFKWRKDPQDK

Work on IgGb12 (antibody) yielded an IC50, ADCC: killing of BaL-infected CEM.NKR.CCR5+ Luc cells by KHYG-1 CD16+ NK cells of 0.0662 µg/mL.
